In paper PMC8169799 (iScience, 2021):

Target: the molecule itself
Experiment: cryo-EM structure

B1: copper efflux regulator (CueR), Escherichia coli (natural protein, E. coli)
chain: MNISDVAKITGLTSKAIRFYEEKGLVTPPMRSENGYRTYTQQHLNELTLLRQARQVGFNLEESGELVNLFNDPQRHSADVKRRTLEKVAEIERHIEELQSMRDQLLALANACPGDDSADCPIIENLSGCCHHRAG
stoichiometry N: 2
